B1: PCSK9 Unfunctionalized-1 (ssDNA)
DNA: CGAATCAGATTGGACCAGTTACCGCCCTCTCCCTTTTGTCCCCTCCGTTGTTTCTCTTTCCCTGAGTCCAGATGTAGGTAG
B2: PCSK9 Charged-2 (ssDNA)
DNA: CGAATCAGATTGGACCAGTTTCATCCCTTTTTGCCACCCCTTTGTTGTCCACCCCCATGTCCTGAGTCCAGATGTAGGTAG
modifications: none (no functionalized codon)
B3: PCSK9 Unfunctionalized-3 (ssDNA)
DNA: CGAATCAGATTGGACCAGCACCCTCCGTCTCCGCTCCCCTCGTCTTGTTGTTTCCCTTTCCCTGAGTCCAGATGTAGGTAG
B4: IL-6 Unfunctionalized-3 (ssDNA)
DNA: CTCGGATGAACCTGGACTCTGTTTTTACTACCGCGCTAGCCGCCTCATCCGTTTTAGCGCCATGCATCGAAGCCAAGATTC
B5: IL-6 Unfunctionalized-1 (ssDNA)
DNA: CTCGGATGAACCTGGACTTTATTGCACTGGCTGTACTTTTCGTATCCATGGTCATCTTTTCTAGCATCGAAGCCAAGATTC
B6: IL-6 Unfunctionalized-4 (ssDNA)
DNA: CTCGGATGAACCTGGACTTAATGATGCTCATGGTGCTCTTCATCACCATCTTCGTTCCATCCTGCATCGAAGCCAAGATTC
B7: IL-6 Unfunctionalized-2 (ssDNA)
DNA: CTCGGATGAACCTGGACTTTACTGCGGCGCCAGCCGTGCCCATCCTTTCTTCATCCGTGCCCAGCATCGAAGCCAAGATTC
B8: IL-6 Unfunctionalized-5 (ssDNA)
DNA: CTCGGATGAACCTGGACTTCTTCATTGCGCTGGTGCCTGCCATCCTTGTTCCATCCCCTTTGCGCATCGAAGCCAAGATTC

Sequence of PCSK9 (Q8NBP7 153-692): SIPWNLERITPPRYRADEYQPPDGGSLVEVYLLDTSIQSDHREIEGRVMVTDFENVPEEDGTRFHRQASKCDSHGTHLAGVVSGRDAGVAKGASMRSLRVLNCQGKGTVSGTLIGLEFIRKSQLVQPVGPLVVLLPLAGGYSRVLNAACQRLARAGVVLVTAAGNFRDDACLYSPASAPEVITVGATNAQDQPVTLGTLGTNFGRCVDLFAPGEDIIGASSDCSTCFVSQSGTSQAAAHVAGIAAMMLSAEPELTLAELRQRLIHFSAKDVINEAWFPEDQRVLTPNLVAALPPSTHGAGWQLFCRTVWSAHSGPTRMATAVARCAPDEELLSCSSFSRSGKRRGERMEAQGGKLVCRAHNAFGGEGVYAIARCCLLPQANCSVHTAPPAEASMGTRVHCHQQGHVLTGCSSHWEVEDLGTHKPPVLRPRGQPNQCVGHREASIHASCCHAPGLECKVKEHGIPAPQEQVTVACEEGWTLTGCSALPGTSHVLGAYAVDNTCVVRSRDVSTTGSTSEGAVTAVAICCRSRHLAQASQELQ

The first data set has as its target PCSK9 (UniProt Q8NBP7 153-692). Put plainly: SPR. (Surface plasmon resonance follows binding to a sensor surface in real time, without labels.)
In turn, B1 had a binding signal of 30 %Rmax.

As for B2, the binding signal was 11 %Rmax.

B3 showed a binding signal of 34 %Rmax.

In another data set the target is IL-6 (UniProt P05231 30-212). Put plainly: SPR.
Sequence of IL-6 (P05231 30-212): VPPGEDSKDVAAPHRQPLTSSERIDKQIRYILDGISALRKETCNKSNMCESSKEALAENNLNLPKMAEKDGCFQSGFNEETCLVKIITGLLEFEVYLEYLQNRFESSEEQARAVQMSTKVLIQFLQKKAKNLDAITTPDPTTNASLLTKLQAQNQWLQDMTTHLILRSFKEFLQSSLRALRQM
As for B4, the binding signal stood at 3 %Rmax.

Consider B5, for which the binding signal turned out to be 4 %Rmax.

With B6, the binding signal stood at 4 %Rmax.

For the molecule B7, the binding signal turned out to be 3 %Rmax.

Molecule B8 yielded a binding signal of 4 %Rmax.

These data come from PMC6430648.
